Laboratory results as given in patent US20110262439A1 (Amgen, published 2011).

T1: mutated murine c-MET antigen with human membrane-distal epitopes (extracellular domains fused to a truncated … (murine/human chimera))
T1 construct: also called cMET-8
T1 chain: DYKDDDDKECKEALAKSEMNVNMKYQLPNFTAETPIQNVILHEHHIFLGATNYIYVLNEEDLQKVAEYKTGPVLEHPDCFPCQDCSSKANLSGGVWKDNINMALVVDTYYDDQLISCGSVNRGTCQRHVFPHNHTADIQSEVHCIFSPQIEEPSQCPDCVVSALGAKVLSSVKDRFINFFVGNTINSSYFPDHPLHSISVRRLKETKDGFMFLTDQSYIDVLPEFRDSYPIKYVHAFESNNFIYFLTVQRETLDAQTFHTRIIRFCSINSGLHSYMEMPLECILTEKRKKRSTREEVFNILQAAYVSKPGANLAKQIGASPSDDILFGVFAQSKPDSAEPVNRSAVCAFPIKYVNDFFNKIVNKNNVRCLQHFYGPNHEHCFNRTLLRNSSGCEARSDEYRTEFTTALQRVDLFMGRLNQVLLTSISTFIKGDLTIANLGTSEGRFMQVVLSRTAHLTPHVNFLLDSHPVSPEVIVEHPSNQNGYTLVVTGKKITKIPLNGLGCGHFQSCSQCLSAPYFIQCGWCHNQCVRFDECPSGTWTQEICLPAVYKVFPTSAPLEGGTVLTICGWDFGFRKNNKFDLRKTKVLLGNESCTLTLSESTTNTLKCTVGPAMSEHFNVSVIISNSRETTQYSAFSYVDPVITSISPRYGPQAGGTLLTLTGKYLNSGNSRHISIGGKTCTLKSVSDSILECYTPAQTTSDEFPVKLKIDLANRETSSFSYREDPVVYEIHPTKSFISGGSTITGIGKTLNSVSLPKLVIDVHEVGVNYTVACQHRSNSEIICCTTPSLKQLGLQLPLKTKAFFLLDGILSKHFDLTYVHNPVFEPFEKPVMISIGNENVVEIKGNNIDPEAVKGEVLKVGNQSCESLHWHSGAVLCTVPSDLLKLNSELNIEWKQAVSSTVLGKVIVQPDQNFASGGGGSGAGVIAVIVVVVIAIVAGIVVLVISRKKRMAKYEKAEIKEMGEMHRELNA

T2: mutated human c-MET antigen with murine membrane-distal epitopes (extracellular domains fused to a truncated … (human/murine chimera))
T2 construct: also called cMET-10
T2 chain: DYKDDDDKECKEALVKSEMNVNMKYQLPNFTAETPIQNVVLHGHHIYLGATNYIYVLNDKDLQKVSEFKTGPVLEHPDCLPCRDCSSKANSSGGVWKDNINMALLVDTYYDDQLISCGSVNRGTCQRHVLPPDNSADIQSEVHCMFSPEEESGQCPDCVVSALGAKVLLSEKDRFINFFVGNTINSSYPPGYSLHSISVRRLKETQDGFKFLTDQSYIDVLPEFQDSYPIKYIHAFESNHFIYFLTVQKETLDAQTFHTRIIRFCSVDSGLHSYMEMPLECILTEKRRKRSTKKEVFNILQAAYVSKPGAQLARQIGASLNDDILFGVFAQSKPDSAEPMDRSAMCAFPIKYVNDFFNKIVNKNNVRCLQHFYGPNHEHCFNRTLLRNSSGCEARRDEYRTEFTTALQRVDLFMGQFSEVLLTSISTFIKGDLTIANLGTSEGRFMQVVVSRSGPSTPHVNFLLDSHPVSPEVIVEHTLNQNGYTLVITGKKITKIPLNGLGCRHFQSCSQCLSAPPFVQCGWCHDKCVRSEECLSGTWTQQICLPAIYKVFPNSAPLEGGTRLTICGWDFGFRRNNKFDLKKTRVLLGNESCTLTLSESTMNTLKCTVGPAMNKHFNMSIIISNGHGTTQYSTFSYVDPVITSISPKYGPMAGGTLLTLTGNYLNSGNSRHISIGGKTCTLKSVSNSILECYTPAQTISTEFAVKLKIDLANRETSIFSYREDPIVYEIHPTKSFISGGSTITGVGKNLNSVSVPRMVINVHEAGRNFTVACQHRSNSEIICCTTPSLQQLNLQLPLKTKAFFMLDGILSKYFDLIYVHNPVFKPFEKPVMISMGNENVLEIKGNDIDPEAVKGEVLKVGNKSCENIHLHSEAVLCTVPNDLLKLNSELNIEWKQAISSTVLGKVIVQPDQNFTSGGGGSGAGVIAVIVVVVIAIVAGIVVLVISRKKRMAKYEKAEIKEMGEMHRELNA


How the values were obtained:
[1] = target: T1, mutated murine c-MET antigen with human …; experiment: FACS, CHO transfectants, periplasmic preparation
[2] = target: T2, mutated human c-MET antigen with murine …; experiment: FACS, CHO transfectants, periplasmic preparation

Binder | binding result [1] | binding result [2]
ME99B1HL (scFv, murine anti-c-MET scFv; E. coli periplasmic preparation) scFv: EVQLLEQSGAELVRPGTSVKISCKATGYTFSNYWISWVKYRPGHGLEWIGDIYPGGSYTNYNEKFKGKVTLTADTSSRTAYMQLSGLTFEDSAIYYCARSGYDYGSDYDYHGMDYWGQGTTVTVSSGGGGSGGGGSGGGGSELQMTQSPASLSASVGETVTITCRASENIYSNLAWYQQKQGKSPQLLVYAATNLADGVPSRFSGSRSGSDYSLTISSLESEDFVDYYCLQYASYPYTFGGGTKLEIKTGDYKDDDDKHHHHHH | no binding | –
ME75H6HL (scFv, murine anti-c-MET scFv; E. coli periplasmic preparation) scFv: EVQLLEQSGAELVRPGTSVKMSCKAAGYTFTKYWIGWVKQRPGHGLEWIGDIHPGGGYANYNEKFKGKATLTADTSSSTAYMQLSRLTSDDSAIYYCARSGYDYGSSYDYHGMDFWGQGTTVTVSSGGGGSGGGGSGGGGSELQMTQSPASLSASVGEPVTFTCRASENIYSYLAWYQQKQGKSPQLLIYGATNLADGMSSRFSGSGSGRQYSLKISSLHPDDVATYYCQNVLSTPYTFGGGTKLEIKTGDYKDDDDKHHHHHH | no binding | binds
ME06C7HL (scFv, murine anti-c-MET scFv; E. coli periplasmic preparation) scFv: EVQLLEQSGAEVVRPGTSVKMSCKAAGYTFTKYWIGWVKQRPGHGLEWIGDIHPGGGFANYNEKFKGKATLTADTSSSTAYMQLSRLTSDDSAIYYCARSGYDYGSSYDYHGMDYWGQGTTVTVSSGGGGSGGGGSGGGGSELQMTQSPTSLAVSLGQRATISCRASQTVYYDGNNYMNWYQHKPGQPPKLLIYATSNLESGIPARFSGSGSGTDFTLNIHPVEAEDAATYYCQQSYEDPYTFGGGTKLEIKTGDYKDDDDKHHHHHH | no binding | binds
ME06D2HL (scFv, murine anti-c-MET scFv; E. coli periplasmic preparation) scFv: EVQLLEQSGADLVRPGTSVKLSCKAAGYTFSRYWISWIRQRPGHGLEWIGEIYPGGGYGNYNENFKDKVTLTADTSSSTAYMQLSSLTSEDSAIYYCARSGYDYGSKYDYYGLDYWGQGTTVTVSSGGGGSGGGGSGGGGSELVMTQSPSSMYASLGERVTITCKASQDINSYLSWFQQKPGKSPKTLIYRANRLVDGVPSRFSGSGSGQDYSLTISSLEYEDMGIYYCLQYDAFPPTFGAGTKLEIKTGDYKDDDDKHHHHHH | no binding | binds
ME05F6HL (scFv, murine anti-c-MET scFv; E. coli periplasmic preparation) scFv: EVQLLEQSGAEVVRPGTSVKMSCKAAGYTFTKYWIGWVKQRPGHGLEWIGDIHPGGGFANYNEKFKGKATLTADTSSSTAYMQLSRLTSDDSAIYYCARSGYDYGSSYDYHGMDYWGQGTTVTVSSGGGGSGGGGSGGGGSELVMTQSPSSLSASLGERVSLTCRASQEISGYLSWLQQKPDGTIKRLIYAASTLDSGVPKRFSGSRSGSDYSLTISSLESEDFADYYCLQYASYPPTFGGGTKLEIKTGDYKDDDDKHHHHHH | no binding | binds

Second part, the binder after the results:

binding result [1] | binding result [2] | Binder
no binding | binds | ME06B7HL (scFv, murine anti-c-MET scFv; E. coli periplasmic preparation) scFv: EVQLLEQSGAELVRPGTSVKISCKATGYTFTTYWLGWVKQRPGHGLEWIGEIHPGGGYTNYNEKFKGKATLTADTSSSTAYMQLSRLTSDDSAIYYCARSGYDYGSSYDYYGMDYWGQGTTVTVSSGGGGSGGGGSGGGGSELVMTQSPSSLSASLGERVSLTCRASQDIGSSLNWLQQEPDGTIKRLIYATSSLDSGVPKRFSGSRSGSDYSLTISSLESEDFVDYYCLQYASSPYTFGGGTKLEIKTGDYKDDDDKHHHHHH
no binding | binds | ME05B7HL (scFv, murine anti-c-MET scFv; E. coli periplasmic preparation) scFv: EVQLLEQSGAELVRPGTSVKISCKTTGYTFGYYWISWLKQRPGHGLEWIGDIYPGGGYTNYHEKFKGKVTLTADTSSRTAYMQLSSLTFEDSAIYYCARSGYDYGSDYDYHGMDYWGQGTTVTVSSGGGGSGGGGSGGGGSELVMTQTPSSLSASLGDRVTISCRASQGISNYLNWYQQKPDGSVKLLIYYTSRLHSGVPSRFSGSGSGTDYSLTISNLDQEDIATYFCQQGNTLPWTFGGGTKLEIKTGDYKDDDDKHHHHHH
no binding | binds | ME06F2HL (scFv, murine anti-c-MET scFv; E. coli periplasmic preparation) scFv: EVQLLEQSGAELMKPGASVKISCKATGYTFSNYWIGWVKQRPGHGLEWIGDIYPGGSYTNYNEKFKGKVTLTADTSSRTAYMQLSSLTFEDSAIYYCARSGYDYASDYDYHGMDYWGQGTTVTVSSGGGGSGGGGSGGGGSELVLTQSPSSMSASLGDRITITCQATQDIVKNLNWYQQKPGKPPSFLIYYATELAEGVPSRFSGSGSGSDYSLTISNLESEDFADYYCLQFYEFPYTFGGGTKLEIKTGDYKDDDDKHHHHHH
no binding | binds | ME06E10HL (scFv, murine anti-c-MET scFv; E. coli periplasmic preparation) scFv: EVQLLEQSGADLVRPGTSVKLSCKAAGYTFSRYWISWIRQRPGHGLEWIGEIYPGGGYGNYNENFKDKVTLTADTSSSTAYMQLSSLTSEDSAIYYCARSGYDYGSKYDYYGLDYWGQGTTVTVSSGGGGSGGGGSGGGGSELVMTQSPSSLSASLGERVSLTCRASQEISGYLSWLQQKPDGTIKRLIYAASTLDSGVPKRFSGSRSGSDYSLTISSLESEDFADYYCLQYASSPYTFGGGTKLEIKTGDYKDDDDKHHHHHH
no binding | binds | ME06D1HL (scFv, murine anti-c-MET scFv; E. coli periplasmic preparation) scFv: EVQLLEQSGAEVVRPGTSVKMSCKAAGYTFTKYWIGWVKQRPGHGLEWIGDIHPGGGFANYNEKFKGKATLTADTSSSTAYMQLSRLTSDDSAIYYCARSGYDYGSSYDYHGMDYWGQGTTVTVSSGGGGSGGGGSGGGGSELVMTQSPSSLTVTAGEKVTMSCKSSQSLLNSGNQKNYLAWYQQKPGQPPKLLIYGASTRESGVPDRFTGSGSGTDFTLTISSVQAEDLADYFCQQHYSTPYTFGGGTKLEIKTGDYKDDDDKHHHHHH
no binding | binds | ME06C6HL (scFv, murine anti-c-MET scFv; E. coli periplasmic preparation) scFv: EVQLLEQSGAELVRPGTSVKIPCKATGYTFSYYWIGWVKQRPGHGLEWIGDIYPGGGYSNYNEKFKGKATLTADTSSSTAYMQLSGLTSEDSAIYYCARSGYDYGSDYDYHGLDYWGQGTTVTVSSGGGGSGGGGSGGGGSELVLTQSPASLAVSLGQRATISCRASESVEYYGTSLMQWYQQKPGQPPKLLIYAASNVESGVPARFSGSGSGTDFSLNIHPVEEDDIAMYFCQQSRKVPYTFGGGTKLEIKTGDYKDDDDKHHHHHH
